This note sets out measurements from patent US20220387578A1 (VANDERBILT UNIVERSITY, published 2022).

B1: rFluA-20 heavy chain mutant Y34A (antibody, V domains shown)
VH: QVQLQESGPGLVKPSETLSLTCSVSGVSVTSDIAYWTWIRQPPGKGLEWIGYIFYNGDTNYNPSLKSRVTMSIDTSKNEFSLRLTSVTAADTAVYFCARGTEDLGYCSSGSCPNHWGQGTLVTVSS
VL: DIQMTQSPSSLSASIGDRVTITCRPSQNIRSFLNWFQHKPGKAPKLLIYAASNLQSGVPSRFSGSGSGTEFTLTIRSLQPEDFATYYCQQSYNTPPTFGQGTKVEIK
B2: rFluA-20 light chain mutant N53A (antibody, V domains shown)
VH: B1 VH with A34Y
VL: B1 VL with N53A
B3: rFluA-20 heavy chain mutant Y100aA (antibody, V domains shown)
VH: B1 VH with A34Y, Y106A
VL: B1 VL
B4: rFluA-20 heavy chain mutant E97A (antibody, V domains shown)
VH: B1 VH with A34Y, E102A
VL: B1 VL
B5: rFluA-20 heavy chain mutant T96A (antibody, V domains shown)
VH: B1 VH with A34Y, T101A
VL: B1 VL

Where a chain is given by its changes, count along the chain named. Names and notes keep the numbering of the source.

The term EC50 denotes the concentration at which the effect is half-maximal.

The target of this assay is H3 HA A/Hong Kong/1/1968 (H3N2), recombinant soluble trimer (influenza A virus, UniProt Q91MA7 17-530).
Regarding B1, the EC50 was 0.07 µg/mL. In the case of B2, the EC50 was found to be 0.06 µg/mL. Regarding B3, the EC50 worked out at 0.07 µg/mL. Then B4, with 0.07 µg/mL; and B5, with 0.1 µg/mL.
